Results: US20230060388A1 (SHANGHAI HENLIUS BIOTECH, published 2023)

T1: human TIGIT expressed on cells (stably transfected Jurkat cells) (human, UniProt Q495A1 22-244)
T1 construct: Also used here for TIGIT on primary T cells in the MLR; also called h-TIGIT; T cell immunoreceptor with Ig and ITIM domains
T1 sequence: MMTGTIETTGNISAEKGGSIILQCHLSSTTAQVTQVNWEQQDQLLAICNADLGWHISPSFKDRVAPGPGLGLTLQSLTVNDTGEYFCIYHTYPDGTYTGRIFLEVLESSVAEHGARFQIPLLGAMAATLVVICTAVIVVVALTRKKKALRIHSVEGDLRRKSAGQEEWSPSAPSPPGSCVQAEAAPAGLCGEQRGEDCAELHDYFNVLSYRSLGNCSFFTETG

T2: recombinant human TIGIT extracellular domain (ECD) (human, UniProt Q495A1 22-138)
T2 construct: also called h-TIGIT ECD; recombinant human TIGIT ECD
T2 sequence: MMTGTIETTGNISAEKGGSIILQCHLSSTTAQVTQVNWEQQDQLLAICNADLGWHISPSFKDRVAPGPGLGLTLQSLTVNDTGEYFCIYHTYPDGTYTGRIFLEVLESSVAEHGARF


What was measured:
[1] = target: T1, human TIGIT expressed on cells (stably …); assay: flow cytometry on h-TIGIT transfected Jurkat cells, anti-human IgG Fc Alexa Fluor 488
Source text: FIGS. 1A-1C depict whole cell binding of representative VHH bivalent antibodies to human TIGIT determined by flowcytometry assays. […] Y axis represents Mean Fluorescence Intensity of AlexaFlour 488. X axis represents antibody concentrations in nanomolar. 2B7, 1G1, 1C12, 3G6, 2B10, 3G7, 3G10, 13H11, and 15A5 are VHH clones of anti-human TIGIT. FIG. 1C is a schematic of the structure of a TIGIT VHH bivalent antibody.
Binding affinities of the bivalent clones to human TIGIT transfected Jurkat cells were confirmed by flowcytometry assays. Jurkat cells stably expressing human TIGIT and NFAT reporter gene were established. Specifically, Jurkat cells were transfected with human TIGIT expression vector by electroporation, and cells stably expressing human TIGIT were selected by 1 μg/ml puromycin during cell culture. Representative antibody clones were incubated at different concentrations with h-TIGIT stably expressing Jurkat cells (0.2×10^6/ml) in 100 μl/well in 96-well plate in FACS buffer (PBS with 1.5% FBS) for 30 min. After washing, Alexaflour 488 conjugated anti-human IgG Fc secondary antibody (Alexa Fluor® 488 AffiniPure Goat Anti-Human IgG, Fcγ fragment specific, Jackson labs, 1:500 dilution) was added and incubated for 30 min. After washing, mean fluorescence intensity was measured using CytoFlex (Beckman Coulter) by gating live cell population. Binding affinity was calculated using GraphPad Prism.

[2] = target: T2, recombinant human TIGIT extracellular …; assay: blocking ELISA, competitor PVR
Protocol: The effects of VHH antibody clones on blocking Poliovirus Receptor (PVR, a.k.a. CD155) binding to TIGIT were also determined using blocking ELISA assay.

Binder	EC50 (read off the curve) [1] [nM]	inhibition of PVR binding to h-TIGIT [2] [%]
15A5 VHH (VHH, VHH in E. coli supernatant) VHH: QVQLVESGGGLVQAGGSLRLSCAASERTFSSFAMGWFRQAPGKEREVVAAIDPSGRYIYYKDSVKGRFTMSRDNAKSTVYLQMNSLKPDDTARYYCAARIRGEGYYTRSSFYHYWGQGTQVTVSS		> 90
3F10 VHH (VHH, VHH in E. coli supernatant) VHH: QVQLVESGGGLVQAGGSLRLSCASSEHTFSNFPMGWFRQAPGKERNVVAAIDSSGRLTYYADSVKGRFTISKDNAKSTVYLQMNSLKSEDTARYYCAARTGGVGYYSRSSFYNYWGQGTLVTVSS		> 90
13H11 bivalent VHH antibody (Fc fusion, not shown: small tags and cut ends) QVQLVESGGGLVQAGGSLRLSCAASGLTFSMYAMGWFRQGPGKERESVAAISSDGRFTYYAASVKGRFTISKDNAKSAAFLQMNSLKPEDTAVYYCAARDSGSGYYSRAQWYDYWGQGTQVTVSS	~0.2	
2B10 VHH (VHH, VHH in E. coli supernatant) VHH: QVKLEESGGGLVQTGDSLRLSCAASSRIFRRYAMGWFRQAPGKEREFVAAITWSGASTTYTDSVKGRFTISRDSAENTTYLQMTSLRPEDTAVYYCAADPWGSVIVGTAEYEYWGQGTLVTVSS		> 90

The next lines start with the values.

EC50 (read off the curve) [1] [nM]	inhibition of PVR binding to h-TIGIT [2] [%]	Binder
~0.06		15A5 bivalent VHH antibody (Fc fusion, not shown: small tags and cut ends) QVQLVESGGGLVQAGGSLRLSCAASERTFSSFAMGWFRQAPGKEREVVAAIDPSGRYIYYKDSVKGRFTMSRDNAKSTVYLQMNSLKPDDTARYYCAARIRGEGYYTRSSFYHYWGQGTQVTVSS
	> 90	1C12 VHH (VHH, VHH in E. coli supernatant) VHH: QVQLVESGGGLVQTGDSLRLSCAASSRIFSRYGMGWFRQAPGKEREFVAAISWNGASTTYTDSVKGRFTISRDSAENTTYLQINSLRPEDTAVYYCAADPWGAVKLGTAEYEYWGQGTQVTVSS
~0.8		3G6 bivalent VHH antibody (Fc fusion, not shown: small tags and cut ends) QVQLVESGGGLVQAGGSLSLSCAASGSIFGISVMGWYRQAPGEQRDLVATLTRAGLTTYGDSVKGRFSISRDSAKNTVYLQMNNLKPEDTAVYYCHANIMESAASTFGRYWGQGTQVTVSS
	> 90	3G6 VHH (VHH, VHH in E. coli supernatant) VHH: QVQLVESGGGLVQAGGSLSLSCAASGSIFGISVMGWYRQAPGEQRDLVATLTRAGLTTYGDSVKGRFSISRDSAKNTVYLQMNNLKPEDTAVYYCHANIMESAASTFGRYWGQGTQVTVSS
